Measured values from patent US20190298770A1 (IOVANCE BIOTHERAPEUTICS, published 2019).

Assays:
[1] = biological target: T1, Programmed Death 1 Ligand 1 (PD-L1) (human, UniProt Q9NZQ7 19-290); experiment: flow cytometry of 293-PD-L1 stained with 10 fold concentrated supernatant of TIL line M1015, Alexa 647 anti-human Fcγ [panel C]
T1 construct: also called CD274; B7-H1

[2] = biological target: T1, Programmed Death 1 Ligand 1 (PD-L1); experiment: flow cytometry on EL4 PD-L1 cells, goat anti-human FITC, % of PD-L1 positive cells

T1 sequence (Q9NZQ7 19-290): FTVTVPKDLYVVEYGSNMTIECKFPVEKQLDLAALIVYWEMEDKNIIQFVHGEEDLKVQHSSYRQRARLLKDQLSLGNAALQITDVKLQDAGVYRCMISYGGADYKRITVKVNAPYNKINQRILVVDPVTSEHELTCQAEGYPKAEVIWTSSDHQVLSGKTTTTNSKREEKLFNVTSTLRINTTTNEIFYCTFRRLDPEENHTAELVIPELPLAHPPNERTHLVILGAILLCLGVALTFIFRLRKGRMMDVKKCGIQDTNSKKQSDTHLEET

FMC63-scFV-Fc (Fc fusion)
% of cells in the upper left (PDL1 positive) quadrant [1]: 1.02%

B1: anti-PD-L1 ScFV clone 19H9 (scFv)
scFv: QVQLQESGGGLVKPGGSLRLSCAASGFTFSSYSMNWVRQAPGKGLEWVSGINTAGDTHYPESVKGRFTISRDNARNSLNLQMNSLRAEDTAVYYCVRERVEREYSGYDAFDIWGQGTTVTVSAGGGGSGGGGSGGGGSGAPNFMLTQPHSVSESLGKTVTISCTGSSGSIARKFVQWYQQRPGSSPTTVIYENNQRPSGVSDRFSGSIGSSSNSASLTISGLKTEDEADYYCQSYDSSNVVFGGGTKVTVL
notes: also called 19H9-scFV; scFV 19H9
binding result [2]: binds

B2: anti-PD-L1 ScFV clone 38A1 (scFv)
scFv: EVQLVESGGGLVQPGGSLRLSCAASGFTFSNYAMSWVRQAPGKGLEWVSTISGSGGTTYYADSVKGRFTISRDNSKNTLYLQMNSLRVEDTAVYYCAKDWFRSSSPDAFDIWGQGTTVTVSAGGGGSGGGGSGGGGSGAPSYVLTQPPSVSVAPGQTARITCGGNNIGRKIVHWYQQRPGQAPVLVIYYDTDRPAGIPERFSGSNSGNMATLTISTVGAGDEADYYCQVWDTGSDHVVFGGGTKLTVL
notes: also called 38A1-scFV; scFV 38A1
binding result [2]: binds
